This is an account of results in patent US20100196385A1.

Experiment [1] concerns the target human Dll1 (human) (UniProt O00548). Put plainly: FACS, 5 µg/ml, 293T cells with human Dll1. Background: A flow cytometer gives signals particle by particle.
For experiment [2] the target is unchanged. Kind of experiment: FACS, 1 µg/ml, 293T cells with human Dll1 vs mock.
Experiment [3] has the same target. Put plainly: FACS, 5 µg/ml, 293T cells with human Dll1 vs mock.
For experiment [4] the target is unchanged. Kind of experiment: FACS, 0.2 µg/ml, 293T cells with human Dll1.
Experiment [5] has the same target. Put plainly: FACS, 1 µg/ml, 293T cells with human Dll1.
The target is the same in experiment [6]. Kind of experiment: FACS, 0.2 µg/ml, 293T cells with human Dll1 vs mock.
The target of experiment [7] is human Jagged1 (human) (UniProt P78504). Kind of experiment: FACS, 5 µg/ml, 293T cells with human Jagged1 vs mock.
Experiment [8] shares this target. Put plainly: FACS, 0.2 µg/ml, 293T cells with human Jagged1.
The target is the same in experiment [9]. Kind of experiment: FACS, 1 µg/ml, 293T cells with human Jagged1 vs mock.
Experiment [10] has the same target. Put plainly: FACS, 0.2 µg/ml, 293T cells with human Jagged1 vs mock.
The target is the same in experiment [11]. Put plainly: FACS, 1 µg/ml, 293T cells with human Jagged1.
Experiment [12] shares this target. Put plainly: FACS, 5 µg/ml, 293T cells with human Jagged1.
Experiment [13] has as its target DLL4 extracellular domain (R&D systems, catalog #1506-D4/CF) (UniProt Q9NR61). Put plainly: cell-based or functional assay.

human Jagged1 (human), sequence (P78504 34-1218): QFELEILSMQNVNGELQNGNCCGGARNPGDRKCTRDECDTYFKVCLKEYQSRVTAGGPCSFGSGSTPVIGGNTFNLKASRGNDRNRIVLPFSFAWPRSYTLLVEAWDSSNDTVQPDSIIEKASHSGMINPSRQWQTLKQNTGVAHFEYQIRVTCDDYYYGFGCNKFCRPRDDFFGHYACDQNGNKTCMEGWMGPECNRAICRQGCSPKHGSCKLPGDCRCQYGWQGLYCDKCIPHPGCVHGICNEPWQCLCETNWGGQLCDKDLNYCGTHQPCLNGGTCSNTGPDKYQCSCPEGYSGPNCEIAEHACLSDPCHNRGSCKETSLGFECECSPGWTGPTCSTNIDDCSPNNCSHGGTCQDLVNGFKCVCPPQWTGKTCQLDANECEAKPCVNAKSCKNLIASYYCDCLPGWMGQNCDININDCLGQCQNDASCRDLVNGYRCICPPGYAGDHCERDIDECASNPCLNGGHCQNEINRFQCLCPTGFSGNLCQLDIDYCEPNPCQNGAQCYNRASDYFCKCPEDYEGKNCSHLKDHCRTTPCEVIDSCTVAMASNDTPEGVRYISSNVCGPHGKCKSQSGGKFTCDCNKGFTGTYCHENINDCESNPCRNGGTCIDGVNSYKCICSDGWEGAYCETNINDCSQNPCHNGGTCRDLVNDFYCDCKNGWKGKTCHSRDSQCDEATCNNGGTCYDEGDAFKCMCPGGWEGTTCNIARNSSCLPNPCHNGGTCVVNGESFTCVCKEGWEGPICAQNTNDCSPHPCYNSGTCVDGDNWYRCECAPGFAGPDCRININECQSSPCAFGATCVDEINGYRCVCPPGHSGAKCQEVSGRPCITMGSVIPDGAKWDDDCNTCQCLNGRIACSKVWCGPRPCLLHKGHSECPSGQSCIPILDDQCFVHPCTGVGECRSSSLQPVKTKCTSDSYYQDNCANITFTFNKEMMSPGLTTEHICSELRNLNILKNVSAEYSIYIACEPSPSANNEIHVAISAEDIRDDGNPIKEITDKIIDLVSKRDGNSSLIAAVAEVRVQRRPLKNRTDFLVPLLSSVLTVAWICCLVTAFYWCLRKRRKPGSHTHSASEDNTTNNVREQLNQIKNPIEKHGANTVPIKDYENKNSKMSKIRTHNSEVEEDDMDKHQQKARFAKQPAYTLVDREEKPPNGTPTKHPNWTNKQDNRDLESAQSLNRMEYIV
DLL4 extracellular domain (R&D systems, catalog #1506-D4/CF), sequence (Q9NR61 27-529 limits assumed): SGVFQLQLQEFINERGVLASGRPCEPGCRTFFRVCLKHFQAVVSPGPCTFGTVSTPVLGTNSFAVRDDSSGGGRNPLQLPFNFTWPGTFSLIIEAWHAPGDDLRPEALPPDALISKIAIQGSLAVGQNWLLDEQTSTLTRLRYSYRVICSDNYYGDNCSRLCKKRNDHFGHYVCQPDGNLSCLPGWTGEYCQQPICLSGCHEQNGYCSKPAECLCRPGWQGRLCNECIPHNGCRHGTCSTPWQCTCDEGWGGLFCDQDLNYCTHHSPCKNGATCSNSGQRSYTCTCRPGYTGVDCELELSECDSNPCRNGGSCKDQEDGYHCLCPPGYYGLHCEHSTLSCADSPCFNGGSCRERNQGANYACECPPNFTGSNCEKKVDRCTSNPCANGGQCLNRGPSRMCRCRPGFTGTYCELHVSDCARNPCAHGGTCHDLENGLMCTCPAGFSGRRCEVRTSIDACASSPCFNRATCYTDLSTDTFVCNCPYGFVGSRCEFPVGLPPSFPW
human Dll1 (human), sequence (O00548 18-723): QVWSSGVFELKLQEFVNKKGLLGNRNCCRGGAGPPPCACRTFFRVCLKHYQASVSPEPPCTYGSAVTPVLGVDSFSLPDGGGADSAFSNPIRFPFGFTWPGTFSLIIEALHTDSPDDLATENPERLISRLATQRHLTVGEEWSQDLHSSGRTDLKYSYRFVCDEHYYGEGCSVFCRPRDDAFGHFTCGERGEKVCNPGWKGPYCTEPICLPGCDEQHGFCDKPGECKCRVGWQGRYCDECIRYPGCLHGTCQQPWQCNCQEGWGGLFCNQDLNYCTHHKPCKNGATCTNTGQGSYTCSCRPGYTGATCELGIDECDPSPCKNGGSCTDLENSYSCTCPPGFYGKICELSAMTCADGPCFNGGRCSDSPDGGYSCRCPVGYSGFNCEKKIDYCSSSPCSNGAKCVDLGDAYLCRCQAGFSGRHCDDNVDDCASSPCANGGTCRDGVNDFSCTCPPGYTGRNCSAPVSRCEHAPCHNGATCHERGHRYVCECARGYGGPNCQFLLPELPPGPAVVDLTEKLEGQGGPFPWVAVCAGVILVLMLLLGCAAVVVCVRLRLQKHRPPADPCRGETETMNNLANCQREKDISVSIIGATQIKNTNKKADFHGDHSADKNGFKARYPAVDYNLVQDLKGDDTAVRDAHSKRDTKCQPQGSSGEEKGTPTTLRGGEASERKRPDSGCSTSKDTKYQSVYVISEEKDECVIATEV

Consider “Goat anti-human Dll1 antibody (R&D systems cat #AF1818)”, for which the Dll1/293T X Geo mean was found to be 1840 with human Dll1 (human) [1], 565 with human Dll1 (human) [4] and 1240 in the experiment with human Dll1 (human) [5]. Besides, the Dll1/mock ratio was 6.33 with human Dll1 (human) [2], 7.68 in the experiment with human Dll1 (human) [3] and 6.94 with human Dll1 (human) [6].
Consider “Mouse anti-human Jagged 1 antibody (R&D systems, catalog #mAB1277)”, for which the Jagged1/mock ratio in the experiment with human Jagged1 (human) [7] was 4.29; with human Jagged1 (human) [9], 3.94; with human Jagged1 (human) [10], 3.38. Moreover, the Jagged1/293T X Geo mean worked out at 50.7 with human Jagged1 (human) [8], 119 with human Jagged1 (human) [11] and 196 with human Jagged1 (human) [12].
Regarding Control IgG4 (antibody), in [13], the % inhibition 1 µg/ml, AVERAGE (HUVEC proliferation on coated DLL4) came out at 11%; the % inhibition 1 µg/ml, N = 1 (HUVEC proliferation on coated DLL4) was determined as 14%; the % inhibition 1 µg/ml, N = 2 (HUVEC proliferation on coated DLL4) worked out at 8%; the % inhibition 10 µg/ml, AVERAGE (HUVEC proliferation on coated DLL4) came to 2%. Further, in experiment [13], the % inhibition 10 µg/ml, N = 1 (HUVEC proliferation on coated DLL4) was found to be 6% and the % inhibition 10 µg/ml, N = 2 (HUVEC proliferation on coated DLL4) was -3%.
For Control IgG2 (antibody), in [13], the % inhibition 1 µg/ml, AVERAGE (HUVEC proliferation on coated DLL4) was determined as 9%; the % inhibition 1 µg/ml, N = 1 (HUVEC proliferation on coated DLL4) amounted to 18%; the % inhibition 1 µg/ml, N = 2 (HUVEC proliferation on coated DLL4) is 0%; the % inhibition 10 µg/ml, AVERAGE (HUVEC proliferation on coated DLL4) was 10%. For the same substance, in [13], the % inhibition 10 µg/ml, N = 1 (HUVEC proliferation on coated DLL4) was 11% and the % inhibition 10 µg/ml, N = 2 (HUVEC proliferation on coated DLL4) stood at 9%.
